For assay [1], the target named is T1, recombinant human domain 1-3His6 of the cation-independent mannose-6-phosphate receptor (human, UniProt P11717 41-467).
T1 construct: Biotinylated (NHS-PEG4-biotin) for BLI; Glycosylated; also called hDom1-3His6; hCI-M6PRD1-D3
Put plainly: BLI. In general terms: Biolayer interferometry detects binding as a change in optical thickness at a sensor tip.

The target in assay [2] is T1, recombinant human domain 1-3His6 of the …. Put plainly: BLI, dissoc pH 5.5, mean of local fits. Here is the method: (§1) FIGS. 58 & 59. […] BLI was performed on an Octet Red96 (FortéBio) instrument in kinetics buffer (0.2 M Na₂HPO₄, 0.1 M Na⁺ citrate, 0.01% bovine serum albumin, 0.002% Tween-20). Biotinylated human domain₁₋₃His₆ was immobilized on Streptavidin SA biosensors (Sartorius) to a signal of 0.6 nm. […] Between assays, biosensors were regenerated by three times 10 s exposure to regeneration buffer (10 mM glycine pH 3). The degree of association and dissociation was measured in δ nm over time (s).
(§2) After loading, the tips were incubated with VHHs serially diluted in pH 7.4 kinetic buffer during the association phase and dissociation was performed at pH 7.4, pH 6.5, pH 6.0, pH 5.5 and pH 5.0. All biosensor tips were then regenerated before analysis of the subsequent VHH. Table 13 summarizes the kinetic parameters retrieved after processing and curve fitting of the BLI measurements. When both association and dissociation were performed at pH 7.4, a global fit was performed according to the 1:1 binding model of which the resulting affinity constants (KD), association (kₒₙ) and dissociation rate constants (koff) are shown. For measurements with association at pH 7.4 and dissociation at pH 6.5, 6.0, 5.5 and 5.0, the depicted dissociation rate constants are an average of the parameters determined by local curve fitting of the dissociation of 200, 100 and 50 nM VHH.

For assay [3] the target is unchanged. Put plainly: BLI, dissoc pH 5, mean of local fits. Here is the method:
as §1, §2

The target is the same in assay [4]. Put plainly: BLI exp 2, dissoc pH not printed (between 7 and 6, presumably 6.5); pH not given; row between pH 7 and pH 6 (6.5 in the VHH1, VHH7 and VHH8 blocks).
Assay [5] shares this target. In words: BLI at pH 7.4, 1st of 2 repeats; BLI, biotinylated hDom1-3His6 on streptavidin tips, pH 7.4, experiment 1. Here is the method:
For each of the 11 anti-CI-M6PR VHHs, a biolayer interferometry (BLI) experiment was performed in which the hDom₁₋₃His₆ was biotinylated and coupled to streptavidin biosensor tips. Afterwards, the tips were incubated with serially diluted VHHs during the association phase and dissociation was performed at pH 7.4. Similarly, dissociation was performed at pH 7.0, pH 6.0 and pH 5.0 as well after regeneration of the biosensor tips. […] The anti-CI-M6PR antibody (clone 2G11) and GBP were used as positive and negative controls, respectively.
Analysis of the binding kinetics was performed using an Octet Red96 (FortéBio) device with Streptavidin SA Biosensor tips (VWR 733-2145). Therefore, 1 mL of human domain₁₋₃His₆ (0.5 mg/mL in 50 mM MES, 150 mM NaCl, pH 6.5) was incubated at room temperature for 30 minutes with EZ-Link™ NHS-PEG4-Biotin (1 mg) (Thermo Fischer A39259) and NaHCO₃ (100 mM). Biotinylated human domain₁₋₃His₆ was purified using a Zeba spin desalting Column™ (7K MWCO, 2 mL, Thermo Fischer 89890) and 1 μg/mL was used for immobilization on the Streptavidin SA Biosensor tips. The loaded tips were dipped into a particular anti-CI-M6PR VHH solution, serially diluted in kinetics buffer (0.2M NaH₂PO₄, 0.1M Na⁺ citrate, 0.01% BSA, 0.002% Tween20, pH 7.4). This was followed by dissociation of the particular anti-CI-M6PR VHH in kinetics buffer of pH 7.4, followed by regeneration in Glycine (10 mM, pH 3) and neutralisation. Same cycle was repeated but the dissociation was performed at pH 7.0, 6.0, 5.0, 4.5 and 4.0. A reference well and reference sensors were subtracted from ligand sensors afterwards and Savitsky-Golay filtering was applied on the data. Fitting of the data was performed using a 1:1 model, grouped per pH of dissociation.

For assay [6], the target named is T2, human cation-independent mannose-6-phosphate receptor, native, on cells (human, UniProt P11717 41-2491).
T2 construct: whole, on cells; also called native CI-M6PR; cell-surface hCI-M6PR
Put plainly: flow cytometry on HepG2 cells: FLAG3-tagged VHH 30 min on ice, M2 anti-Flag mAb, PE anti-mouse F(ab')2 [upper graph]. The source says: Synthetic DNA fragments encoding VHHs were ordered (IDT, Leuven, Belgium) and subcloned into an E. coli expression vector under control of an IPTG-inducible lac promoter, in frame with N-terminal PelB signal peptide (which directs the recombinant proteins to the periplasmic compartment) and C-terminal FLAG3 and His6 tags. […] VHH proteins were purified from these clones by means of IMAC chromatography followed by desalting according to well established procedures¹⁰⁶. Cells used herein were recovered using cell dissociation non-enzymatic solution (Sigma Aldrich, cat. #C5914-100ML) and resuspended to a final concentration of 1,000,000 cells/mL in FACS buffer. Cells were incubated with different concentrations of purified FLAG3-tagged VHHs for 30 minutes on ice with shaking, followed by washing and incubation with mouse M2 anti-Flag mAb (Sigma Aldrich, cat. #F-1804) in FACS buffer for 30 min on ice with shaking, followed again by washing. […] Flow cytometry and analysis were done on an Attune NxT Flow Cytometer (Thermo Fisher Scientific).
Moreover, cross-reactivity to mouse CI-M6PR was analyzed, in view of the amino acid homology between mouse and human being overall about 80% identity, but for domain 1-3 of CI-M6PR just about 75% identity.
For orientation: In flow cytometry, cells or beads pass a laser one at a time.

B1: anti-CI-M6PR VHH7 (VHH)
VHH: QVQLQESGGGLVQPGGSLRLSCAASGIIFSDNRMDWYRQAPGKQREWVATLASYGWKTYADSVKGRFTISRDNTKNTVYLRMNSLKPEDTAVYYCKASSPVLNDIWGQGTQVTVSS
notes: His6-tagged (Pichia pastoris)
In the case of B1, the “fold higher dissociation rate at pH 6.0 versus pH 7.4” value in assay [1] amounted to 5 fold.

B2: anti-CI-M6PR VHH 1H11 (VHH)
VHH: QVQLQESGGGLVQPGGSLRLSCAASGIIFSDNRMDWYRQAPGKQREWVATLASYGWKTYADSVKDRFTISRDNAKNTVNLYMNSLQPEDTAVYYCNSGQYWGQGTQVTVSS
notes: made in E. coli WK6, His-tag purified
For the molecule B2, the koff (commonly a measure of how fast the partners let go of each other) in assay [2] worked out at 0.0063 s⁻¹; in assay [3], 0.0083 s⁻¹.

B3: anti-CI-M6PR VHH5 (VHH)
VHH: QVQLQESGGGLVQAGGSLKLSCAAAGRTFSRLAMGWFRQAPGKEREFVAAISENGDSIHYSDSVKGRFAVSRDNAKNTVYLQMNSLKPEDTAIYYCAADRAAYYCSGSGCYPSRAPAAASYDYWGQGTQVTVSS
notes: His6-tagged; made in Pichia pastoris, later also in E. coli WK6
B3: the kon (as a rule, the second-order rate constant of association) in assay [4] was determined as 1.3e+06 M⁻¹ s⁻¹.

B4: anti-CI-M6PR VHH4 (VHH)
VHH: QVQLQESGGGLVQAGGSLRLSCAASGRTFSNYVMGWFRQAPGKEREFVGSISQGGKMTYYPDSVKGRFTISRDNAKNTMYLQMDGLKPEDTAVYYCAVSRGYPMVRVSEVDYWGQGTQVTVSS
notes: His6-tagged; made in Pichia pastoris
On to B4, for which, in assay [5], the Kd – broadly, the free concentration of one partner at which half of the binding sites on the other are occupied at equilibrium, for simple one-to-one binding – stood at 2.33 nM; the koff amounted to 0.00133 s⁻¹; the kon came out at 571000 M⁻¹ s⁻¹.

B5: anti-CI-M6PR VHH8 (VHH)
VHH: QVQLQESGGGLVQAGGSLRLSCEASGRTFNTYNWGWFRQAPGKEREFVAAIRWSSSKTSYADSVKGRFTISRDNAKNTIYLQMNSLKPEDTAVYYCAASIVDFTTNPSHFGSWGQGTQVTVSS
notes: His6-tagged (Pichia pastoris)
For the molecule B5, in assay [6], the half-maximal effective concentration (EC50 (read off the curve)) (in general, the midpoint of the concentration-response curve) was roughly 2 nM.

For the origin of these results see patent publication US20250263490A1 (VIB VZW, published 2025).
